Data as given in publication PMC3058308 (Nature, 2011).

Assays:
β2AR-T4L = type: binding, human
[1] = molecular target: β2 adrenergic receptor truncated at position 365, reconstituted in HDL particles (Homo sapiens (Human)., UniProt P07550); test: radioligand binding
mBB-β2AR/HDL = mBB-β2AR/HDL (Homo sapiens, UniProt P07550); test: Bimane fluorescence spectroscopy on mBB-β2AR reconstituted in HDL particles; type: biochemical

Molecule	Ki (β2AR-T4L; read-out: Ki in the presence of Nb80, β2AR-T4L/HDL, Nb80 1 μM, 0.6 nM [3H]-DHA) [pM]	increase of affinity in the presence of Nb80 (β2AR-T4L; β2AR-T4L/HDL with Nb80 versus without) [fold]	binding result [1]	effect on bimane fluorescence of β2AR bound to inverse agonist ICI-118,551 (mBB-β2AR/HDL; 300 nM Nb80, 1 μM ICI)	effect on bimane fluorescence in the presence of isoproterenol (mBB-β2AR/HDL; 300 nM Nb80, 10 μM isoproterenol)
isoproterenol	560	60	–	–	–
Nanobody-80 (VHH) VHH: QVQLQESGGGLVQAGGSLRLSCAASGSIFSINTMGWYRQAPGKQRELVAAIHSGGSTNYANSVKGRFTISRDNAANTVYLQMNSLKPEDTAVYYCNVKDYGAVLYEYDYWGQGTQVTVSS	–	–	binds	not observed	increased
